# In patent US12053511B2, “Cystatin C and Cystatin 9 to treat gut inflammation caused by thermal injury” (priority 2016, dated 2024):
# Columns and labels:
# [1] = tested on: MIP-1 and IL-8; test: Systemic cytokines in gavaged mice given 30% full-thickness burn; assay type: in vivo, Balb/c mice; settings: gavage 50 pg/mouse, then 30% full-thickness burn; specifically in the lungs
# Description: It is known that intestinal leakage of intestinal bacteria and their product occurs following burn injury likely contributing to systemic infection and sepsis.
# [2] = tested on: gut microbiome; test: Gut microbiome by 16S next generation sequencing, infection and thermal injury model; assay type: in vivo, Balb/c mice
# Experimental: Mice were intraperitoneally (i.p.) challenged with 1×10^7 CFU of an intestinal isolate E. coli (EC) and 1000 ng of flagellin then treated i.p. with 500 pg rCST9 and/or 50 pg rCSTC followed by a 30% full-thickness thermal injury (30% TBSA). […] Additional groups of infected, rCST treated and/or thermally injured mice were euthanized at 24 and 48 h post-thermal injury to collect serum and harvest intestinal samples. Cytokines were quantified in the serum and analysis of the gut microbiome.
# Gut samples were harvested at 24 and 48 h from the same 4 mouse groups euthanized to collect sera as described above. As we reported in a previous publication (8), briefly, approximately 3 mm^3 pieces of the intestine (close to the cecum) were sterilely harvested from each mouse. For gut microbiome analysis, DNA from intestinal samples was extracted from samples lysed in MagNA Pure DNA Tissue Lysis Buffer followed by automated extraction on a MagNA Pure 96 platform (Roche). The isolated DNA was amplified using a panel of five “universal” primer pairs (Ion Xpress Barcodes) that created overlapping 400 bp DNA fragments covering 95% of the bacterial 16S rDNA. Barcoded amplimers were mixed at equimolar ratios and then subjected to Ion Torrent NGS (Thermo Scientific). Average read length was >300 bases with sequence generated from both strands. Reads were filtered and binned according to Ion Xpress barcode with Ion Torrent Suite software (v 4.0.2). Sequencing reads were then further processed using Galaxy software where each barcode was trimmed to remove the primer sequence. The 16S sequences were compared to the SILVA database using bowtie 2 software to yield species or genera level matches to return the hit-rate. Where multiple calls to the same genera were made the number of hits were added accordingly. Hit rates were converted to percentage of total to give an overall ratio of the sequenced microbiome.
# [3] = tested on: monocyte-derived macrophages (MDM) infected with NDM-1-producing Kp; test: Cytokine secretion from NDM-1 Kp-infected MDM; assay type: cell-based, human; settings: rCSTC 50 pg, rCST9 25 or 50 pg, individually and in combination; vs Kp-infected MDM
# [4] = tested on: NDM-1 Kp; test: In vitro bacteria viability and growth assay; assay type: cell-based, Klebsiella pneumoniae BAA-2146; settings: given individually and in combination
# Description: Anti-microbial activity of rCST9/rCSTC against NDM-1 Kp. […] To address this directly, PrestoBlue® was used to determine the viability of rCST9/rCSTC-treated NDM-1 Kp based in the reagents rapid reduction by metabolically active bacteria. […] The most substantial decrease in bacterial growth occurred with 50, 500, and 1000 pg of rCSTs compared to lower doses of 10 and 25 pg of rCSTs (FIGS. 7A-C).
# Bacteria preparation. The MDR New Delhi metallo-beta-lactamase-1 (NDM-1) producing Klebsiella pneumoniae BAA-2146™ was purchased from ATCC and expanded for 18 hours in 10 mL of brain heart infusion (BHI) broth while shaking at 37° C. The overnight culture was pelleted by centrifugation and then suspended in PBS. Serial dilutions were performed to obtain the desired concentration. Ten-fold dilutions were plated on BHI agar to confirm experimental dosage.
# In vitro bacteria viability and growth assay. As a measure of NDM-1 Kp viability, aliquots were treated with Prestoblue® cell viability reagent (Invivogen) following exposure to CSTs. […] Following incubation, […] of Prestoblue® reagent was added to each sample and incubated for 1 h before quantification of cell viability via absorbance at 570-600 nm measurement (Bio-Tek; Epoch Model). […] Additionally, 100 μL of cultures were plated on BHI plates to quantify colony-forming units (CFU) following an overnight incubation at 37° C. […]
# [5] = individual treatment, 24 and 48 h post-burn
Molecule,systemic MIP-1 and IL-8 secretion [1],"gut microbiome profile [2, 5]",cytokine secretion from infected MDM [3],replication of NDM-1-producing Kp [4],Bacteroidales S24-7 in gut microbiome ([2]; 24 h post-burn),Lachnospiraceae family in gut microbiome ([2]; 24 h post-burn),gut microbiome profile ([2]; 48 h post-burn)
"rCST9: human recombinant cystatin 9, cysteine proteinase inhibitor; purchased from American Research Products, Inc. (protein, UniProt Q5W186 29-159, looked up) Cystatin-9: WCSEEEMGGNNKIVQDPMFLATVEFALNTFNVQSKEEHAYRLLRVLSSWREDSMDRKWRGKMVFSMNLQLRQTVCRKFEDDIDNCPFQESLELNNVRQGISFPQVHSCGCCMGCGVGTGAADKAIPRDKGK",decrease in systemic MIP-1 and IL-8 secretion,preserved the gut microbiome that was equivalent to sham controls,restrained cytokine secretion,inhibited the replication,,,
"rCSTC: human recombinant cystatin C (CST3), cysteine proteinase inhibitor; purchased from R&D Systems (protein, UniProt P01034 27-146, looked up) Cystatin-C: SSPGKPPRLVGGPMDASVEEEGVRRALDFAVGEYNKASNDMYHSRALQVVRARKQIVAGVNYFLDVELGRTTCTKTQPNLDNCPFHDQPHLKRKAFCSFQIYAVPWQGTMTLSKSTCQDA",decrease in systemic MIP-1 and IL-8 secretion,preserved the gut microbiome that was equivalent to sham controls,restrained cytokine secretion,inhibited the replication,noticeable but moderate increase,proportionate decrease,nearly equivalent to sham controls
